Experimental data: IntAct's records for PubMed 19955427

B1: Protein phosphatase 2C 37 (Arabidopsis thaliana (Mouse-ear cress)), P49598 (parent)
chain: MAGICCGVVGETEPAAPVDSTSRASLRRRLDLLPSIKIVADSAVAPPLENCRKRQKRETVVLSTLPGNLDLDSNVRSENKKARSAVTNSNSVTEAESFFSDVPKIGTTSVCGRRRDMEDAVSIHPSFLQRNSENHHFYGVFDGHGCSHVAEKCRERLHDIVKKEVEVMASDEWTETMVKSFQKMDKEVSQRECNLVVNGATRSMKNSCRCELQSPQCDAVGSTAVVSVVTPEKIIVSNCGDSRAVLCRNGVAIPLSVDHKPDRPDELIRIQQAGGRVIYWDGARVLGVLAMSRAIGDNYLKPYVIPDPEVTVTDRTDEDECLILASDGLWDVVPNETACGVARMCLRGAGAGDDSDAAHNACSDAALLLTKLALARQSSDNVSVVVVDLRKRRNNQASS
partner: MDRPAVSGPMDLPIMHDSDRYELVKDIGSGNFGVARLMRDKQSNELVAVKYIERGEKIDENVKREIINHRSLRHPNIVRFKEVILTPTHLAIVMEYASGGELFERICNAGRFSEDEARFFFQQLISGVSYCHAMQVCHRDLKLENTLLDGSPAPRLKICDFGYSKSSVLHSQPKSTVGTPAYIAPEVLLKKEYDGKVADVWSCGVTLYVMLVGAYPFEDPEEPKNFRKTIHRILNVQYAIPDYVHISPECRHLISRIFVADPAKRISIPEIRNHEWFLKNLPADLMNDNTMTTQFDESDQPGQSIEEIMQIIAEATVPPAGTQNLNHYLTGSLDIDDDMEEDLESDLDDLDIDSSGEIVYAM
B2: Serine/threonine-protein kinase SRK2E (Arabidopsis thaliana (Mouse-ear cress)), Q940H6 (parent)
chain: B1 partner
partner: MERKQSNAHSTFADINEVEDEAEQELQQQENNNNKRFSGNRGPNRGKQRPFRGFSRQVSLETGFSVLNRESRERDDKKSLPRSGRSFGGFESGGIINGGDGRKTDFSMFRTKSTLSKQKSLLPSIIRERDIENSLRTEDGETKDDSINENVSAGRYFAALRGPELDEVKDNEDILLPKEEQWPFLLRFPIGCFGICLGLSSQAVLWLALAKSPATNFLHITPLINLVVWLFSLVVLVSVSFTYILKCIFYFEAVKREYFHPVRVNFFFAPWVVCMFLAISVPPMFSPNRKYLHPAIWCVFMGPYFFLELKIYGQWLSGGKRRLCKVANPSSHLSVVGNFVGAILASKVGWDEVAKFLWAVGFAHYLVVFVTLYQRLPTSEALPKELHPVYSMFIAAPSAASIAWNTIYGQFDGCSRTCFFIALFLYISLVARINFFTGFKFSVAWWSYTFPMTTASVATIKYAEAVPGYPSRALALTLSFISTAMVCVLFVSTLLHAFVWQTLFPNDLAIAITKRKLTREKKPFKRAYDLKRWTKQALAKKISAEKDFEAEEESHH

Variants of: B1
Settings: with srk2e_arath SRK2E

Row | Variant | effect of a mutation on the interaction
1 | MAGICCGVVGETEPAAPVDSTSRASLRRRLDLLPSIKIVADSAVAPPLENCRKRQKRETVVLSTLPGNLDLDSNVRSENKKARSAVTNSNSVTEAESFFSDVPKIGTTSVCGRRRDMEDAVSIHPSFLQRNSENHHFYDVFDGHDCSHVAEKCRERLHDIVKKEVEVMASDEWTETMVKSFQKMDKEVSQRECNLVVNGATRSMKNSCRCELQSPQCDAVGSTAVVSVVTPEKIIVSNCGDSRAVLCRNGVAIPLSVDHKPDRPDELIRIQQAGGRVIYWDGARVLGVLAMSRAIGDNYLKPYVIPDPEVTVTDRTDEDECLILASDGLWDVVPNETACGVARMCLRGAGAGDDSDAAHNACSDAALLLTKLALARQSSDNVSVVVVDLRKRRNNQASS [G139D;G145D] | disrupting interaction

Variants of: B2
Settings: with slac1_arath SLAC1, Q9LD83

Row | Variant | effect of a mutation on the interaction
2 | MDRPAVSGPMDLPIMHDSDRYELVKDIGSGNFGVARLMRDKQSNELVAVNYIERGEKIDENVKREIINHRSLRHPNIVRFKEVILTPTHLAIVMEYASGGELFERICNAGRFSEDEARFFFQQLISGVSYCHAMQVCHRDLKLENTLLDGSPAPRLKICDFGYSKSSVLHSQPKSTVGTPAYIAPEVLLKKEYDGKVADVWSCGVTLYVMLVGAYPFEDPEEPKNFRKTIHRILNVQYAIPDYVHISPECRHLISRIFVADPAKRISIPEIRNHEWFLKNLPADLMNDNTMTTQFDESDQPGQSIEEIMQIIAEATVPPAGTQNLNHYLTGSLDIDDDMEEDLESDLDDLDIDSSGEIVYAM [K50N] | disrupting interaction
